Results published in US20140186327.

Legend:
[1] = biological target: T1, soluble tissue factor (sTF), P13726
T1 chain: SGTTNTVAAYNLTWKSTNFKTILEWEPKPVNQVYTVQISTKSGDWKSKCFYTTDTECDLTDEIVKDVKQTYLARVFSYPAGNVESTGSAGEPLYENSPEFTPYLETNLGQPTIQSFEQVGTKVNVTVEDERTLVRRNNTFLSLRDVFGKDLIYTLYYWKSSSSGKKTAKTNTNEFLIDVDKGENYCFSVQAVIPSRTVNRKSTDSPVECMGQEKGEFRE

In the case of FXI protease, the Concentration by Activity (ng/ml), aPTT based factor assay (FIX-/FXI/-XTEN_AE864) is reported as 11 ng/mL, the “Fraction Active (activity / ELISA)” value (FIX-/FXI/-XTEN_AE864) is reported as 40% and the “fold enhancement of clotting activity against FIX-XTEN (aPTT based factor assay)” value (shortened to “fold enhancement of clotting activity”) (FIX-/FXI/-XTEN_AE864) is reported as “In all three cases the presence of a FXI cleavage site enhanced the clotting activity by greater than 30-fold”. For the same molecule, the Concentration by Activity (ng/ml), aPTT based factor assay (FIX-DFTRVVG-XTEN_AE864) was 9 ng/mL, the “Fraction Active (activity / ELISA)” value (FIX-DFTRVVG-XTEN_AE864) was 34% and the “fold enhancement of clotting activity” value (FIX-DFTRVVG-XTEN_AE864) was “In all three cases the presence of a FXI cleavage site enhanced the clotting activity by greater than 30-fold”. For the same molecule, the Concentration by Activity (ng/ml), aPTT based factor assay (FIX-KLTRAET-XTEN_AE864) was 7 ng/mL, the “Fraction Active (activity / ELISA)” value (FIX-KLTRAET-XTEN_AE864) was 30% and the “fold enhancement of clotting activity” value (FIX-KLTRAET-XTEN_AE864) was “In all three cases the presence of a FXI cleavage site enhanced the clotting activity by greater than 30-fold”.

With FXa from Novagen the “conversion of FVII-XTEN to FVIIa-XTEN (reducing SDS-PAGE)” value (FVII-XTEN_AE288) was “Reducing SDS-PAGE indicated a complete conversion of FVII-XTEN proteins to FVIIa-XTEN proteins” and the “conversion of FVII-XTEN to FVIIa-XTEN (reducing SDS-PAGE)” value (FVII-XTEN_AE864) was “Reducing SDS-PAGE indicated a complete conversion of FVII-XTEN proteins to FVIIa-XTEN proteins”.

B1: FVIIa-AE288 (protein)
chain: AVFVTQEEAHGVLHRRRRANAFLEELRPGSLERECKEEQCSFEEAREIFKDAERTKLFWISYSDGDQCASSPCQNGGSCKDQLQSYICFCLPAFEGRNCETHKDDQLICVNENGGCEQYCSDHTGTKRSCRCHEGYSLLADGVSCTPTVEYPCGKIPILEKRNASKPQGRIVGGKVCPKGECPWQVLLLVNGAQLCGGTLINTIWVVSAAHCFDKIKNWRNLIAVLGEHDLSEHDGDEQSRRVAQVIIPSTYVPGTTNHDIALLRLHQPVVLTDHVVPLCLPERTFSERTLAFVRFSLVSGWGQLLDRGATALELMVLNVPRLMTQDCLQQSRKVGDSPNITEYMFCAGYSDGSKDSCKGDSGGPHATHYRGTWYLTGIVSWGQGCATVGHFGVYTRVSQYIEWLQKLMRSEPRPGVLLRAPFPGSPGTSESATPESGPGSEPATSGSETPGTSESATPESGPGSEPATSGSETPGTSESATPESGPGTSTEPSEGSAPGSPAGSPTSTEEGTSESATPESGPGSEPATSGSETPGTSESATPESGPGSPAGSPTSTEEGSPAGSPTSTEEGTSTEPSEGSAPGTSESATPESGPGTSESATPESGPGTSESATPESGPGSEPATSGSETPGSEPATSGSETPGSPAGSPTSTEEGTSTEPSEGSAPGTSTEPSEGSAPGSEPATSGSETPGTSESATPESGPGTSTEPSEGSAPGSSS
With B1 the “soluble tissue factor (sTF) induced clotting (Stago STA-Clot FVIIa activity assay)” value [1] was “an activity equivalent to 112 U/ml of FVIIa activity”.
